Assays:
[1] = molecular target: Dimeric HER2 binding IgA1 produced in HEK293F cells (human) (UniProt P01591); assay: SPR; Biacore T200; IgA variants immobilized on a Protein L sensor chip; five increasing concentrations of FcαRI injected in single-cycle kinetic experiments; 1:1 binding model; three independent kinetic runs
[2] = molecular target: Dimeric HER2 binding IgA1 produced in N. benthamiana ΔXT/FT (human) (UniProt P01591); assay: as above
[3] = molecular target: Dimeric HER2 binding IgA2m(2) produced in HEK293F cells (human) (UniProt P01591); assay: as above
[4] = molecular target: Dimeric HER2 binding IgA2m(2) produced in N. benthamiana ΔXT/FT (human) (UniProt P01591); assay: as above
[5] = molecular target: Monomeric HER2 binding IgA1 produced in HEK293F cells (human); assay: as above
[6] = molecular target: Monomeric HER2 binding IgA1 produced in N. benthamiana ΔXT/FT (human); assay: as above
[7] = molecular target: Monomeric HER2 binding IgA2m(2) produced in HEK293F cells (human); assay: as above
[8] = molecular target: Monomeric HER2 binding IgA2m(2) produced in N. benthamiana ΔXT/FT (human); assay: as above
[9] = molecular target: HER2 binding dimeric IgA1 produced in HEK293F cells (human) (UniProt P01591); assay: SPR; Biacore T200; IgA variants immobilised on a Protein L sensor chip with the Fc-domain pointing toward the solution; five increasing concentrations of FcαRI injected in single-cycle kinetic experiments; 1:1 binding model; three independent kinetic runs
[10] = molecular target: HER2 binding dimeric IgA1 produced in N. benthamiana ΔXT/FT plants (human) (UniProt P01591); assay: as above
[11] = molecular target: HER2 binding dimeric IgA2m(2) produced in HEK293F cells (human) (UniProt P01591); assay: as above
[12] = molecular target: HER2 binding dimeric IgA2m(2) produced in N. benthamiana ΔXT/FT plants (human) (UniProt P01591); assay: as above
[13] = molecular target: HER2 binding monomeric IgA1 produced in HEK293F cells (human); assay: as above
[14] = molecular target: HER2 binding monomeric IgA1 produced in N. benthamiana ΔXT/FT plants (human); assay: as above
[15] = molecular target: HER2 binding monomeric IgA2m(2) produced in HEK293F cells (human); assay: as above
[16] = molecular target: HER2 binding monomeric IgA2m(2) produced in N. benthamiana ΔXT/FT plants (human); assay: as above

Kd [1]: 144 nM
koff [1]: 0.055 s⁻¹
kon [1]: 360000 M⁻¹ s⁻¹
Kd [2]: 151 nM
koff [2]: 0.057 s⁻¹
kon [2]: 370000 M⁻¹ s⁻¹
Kd [3]: 182 nM
koff [3]: 0.049 s⁻¹
kon [3]: 260000 M⁻¹ s⁻¹
Kd [4]: 226 nM
koff [4]: 0.049 s⁻¹
kon [4]: 270000 M⁻¹ s⁻¹
Kd [5]: 109 nM
koff [5]: 0.05 s⁻¹
kon [5]: 440000 M⁻¹ s⁻¹
Kd [6]: 103 nM
koff [6]: 0.061 s⁻¹
kon [6]: 580000 M⁻¹ s⁻¹
Kd [7]: 157 nM
koff [7]: 0.05 s⁻¹
kon [7]: 310000 M⁻¹ s⁻¹
Kd [8]: 160 nM
koff [8]: 0.055 s⁻¹
kon [8]: 340000 M⁻¹ s⁻¹
stoichiometry N [9]: 1
stoichiometry N [10]: 1
stoichiometry N [11]: 1
stoichiometry N [12]: 1
Kd [13]: 110 nM
stoichiometry N [13]: 1
Kd [14]: 110 nM
stoichiometry N [14]: 1
Kd [15]: 170 nM
stoichiometry N [15]: 1
Kd [16]: 170 nM
stoichiometry N [16]: 1
Substance: Recombinant soluble FcαRI (from UniProt P24071 22-227) (receptor)

From publication PMC7212365
